In one test the target is SARS-CoV spike protein (SARS-CoV, UniProt P59594 14-1190).
The target of test [1] is SARS-CoV-2 full-length spike protein on pseudotyped lentivirus (SARS-CoV-2, UniProt P0DTC2 14-1273). Kind of test: cell-based or functional assay.

Where a chain is given by its changes, count along the chain named.

B1: antibody 349 (antibody, V domains shown)
VH: EVQLVQSGAEVKKPGATVKISCKVSGYTFTDYYMHWVQQAPGKGLEWMGLVDPEDGETIYAEKFQGRVTITADTSTDTAYMELSSLRSEDTAVYYCATENKVPTIIAAAGTRDYYYYGMDVWGQGTTVTVSS
VL: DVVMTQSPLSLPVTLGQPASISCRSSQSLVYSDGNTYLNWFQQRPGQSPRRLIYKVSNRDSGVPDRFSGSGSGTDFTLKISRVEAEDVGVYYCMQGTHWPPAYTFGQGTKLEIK
With B1, the “median fluorescence intensity, fold over isotype control” value (“median fluorescence intensity, fold” for short) with SARS-CoV spike protein is 1.12 fold over isotype.

B2: anti-SARS-CoV-2 antibody 292 (antibody, V domains shown)
VH: EVQLVESGGGLIQPGGSLRLSCAASGFTVSSNYMSWVRQAPGKGLEWVSVIYSGGSTYYADSVKGRFTISRDNSKNTLYLQMNSLRAEDTAVYYCARDLQGGGGPWGQGTLVTVSS
VL: AIQMTQSPSSLSASVGDRVTITCRASQGIRNDLGWYQQKPGKAPKLLIYAASSLQSGVPSRFSGSGSGTDFTLTISSLQPEDFATYYCLQDYNYPRTFGQGTKVEIKR
Turning to B2, in test [1], the “IC50 (pseudoneutralization)” value is greater than 50 µg/mL and the “IC80 (pseudoneutralization)” value was greater than 50 µg/mL.

B3: anti-SARS-CoV-2 antibody 447 (antibody, V domains shown)
VH: B2 VH with I12V, L99K, Q100S, G101S, G103S
VL: B2 VL
Take B3: in test [1], the “IC50 (pseudoneutralization)” value was greater than 50 µg/mL and the “IC80 (pseudoneutralization)” value is greater than 50 µg/mL.

B4: anti-SARS-CoV-2 antibody 408 (antibody, V domains shown)
VH: QVQLVESGGGVVQPGRSLRLSCAASGFTFSSYAMHWVRQAPGKGLEWVAVISYDGSNKYYADSVKGRFTISRDNSRNTLYLQMNSLRAEDTAVYYCAKGADTPHYSGYDFLSVGYYYYGMDVWGQGTTVTVSS
VL: DIQMTQSPSSLSASVGDRVTITCRASQSISSYLNWYQQKPGKAPKLLIYAASSFQSGVPSRFSGSRSGTDFTLTISSLQPEDFATYYCQQSYSAPFTFGPGTKVDIKR
Take B4: in test [1], the “IC50 (pseudoneutralization)” value is greater than 50 µg/mL and the “IC80 (pseudoneutralization)” value is greater than 50 µg/mL.

B5: antibody 380 (antibody, V domains shown)
VH: QVQLVESGGGVVQPGRSLRLSCAASGFTLKNYGMHWVRQAPGKGLEWVIVLSFDGSDEYKADSVRGRFTVSRDNSKNTLFLQMNSLRPDDTAVYYCAREQPTMIEGGRGPFDIWGQGTMVTVSS
VL: EVVMTQSPATLSVSPGDRATLSCRASQGVNSNLAWYQQKPGQAPRLLIYAASTRATGIPARFSASGSGTHFTLTISSLQSEDFAVYYCLQYNNWPPWTFGQGTKLEIK
As to B5, the “median fluorescence intensity, fold” value with SARS-CoV spike protein turned out to be 1.21 fold over isotype.

B6: antibody 363 (antibody, V domains shown)
VH: EVQLLESGGGLVQPGGSLRLSCAASGFTFSTYAMSWVRQAPGKGLEWVSAISGSGGSTYYADSVKGRFTISRDNSKNTLYLQMNSLRAEDTAVYYCASGYSPDYWGQGTLVTVSS
VL: not shown
Consider B6, for which the “median fluorescence intensity, fold” value in the test with SARS-CoV spike protein amounted to 1.09 fold over isotype.

B7: antibody 348 (antibody, V domains shown)
VH: QVQLVQSGSELKKPGASVKVSCKASGYTFTSYAMNWVRQAPGQGLEWMGWINTNTGNPTYAQGFTGRFVFSLDTSVSTAYLQISSLKAEDTAVYYCARDHELPNTSSWFGHFEYWGQGTLVTVSS
VL: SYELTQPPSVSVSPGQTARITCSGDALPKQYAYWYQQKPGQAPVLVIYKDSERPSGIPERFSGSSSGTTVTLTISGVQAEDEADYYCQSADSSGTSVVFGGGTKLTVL
As for B7, in the test with SARS-CoV spike protein, the “median fluorescence intensity, fold” value worked out at 1.16 fold over isotype.

B8: anti-SARS-CoV-2 antibody 364 (antibody, V domains shown)
VH: EVQLVESGGGLVQPGRSLRLSCTASGFTFGDYAMSWFRQAPGKGLEWVGFIRSKAYGGTTEYAASVKGRFTISRDDSKSIAYLQMNSLKTEDTAVYYCTRFGIDYDYIWGSYRYTTLFDYWGQGTLVTVSS
VL: not shown
With B8, in test [1], the “IC50 (pseudoneutralization)” value is greater than 50 µg/mL and the “IC80 (pseudoneutralization)” value is greater than 50 µg/mL.

B9: antibody 351 (antibody, V domains shown)
VH: HVQLVESGGGVVQPGRSLRLSCAASGFISRNYGMEWVRQAPGQGLEWVAGIWYDGSKKYYADSVKGRFTISRDTSKNTLFLQMDSLRAEDTAVFYCATATKTFCGGDCPPGGMDVWGQGTTVTVST
VL: SYVLTQPPSVSVAPGKTAWITCVGNNIESESVHWYQQRPGQAPVLVIYYDSDRPSGIPERFFGSNSGNTATLTISRVEAGDEADYYCQVWDSNSDLMVFGGGTKLTVL
In the case of B9, the “median fluorescence intensity, fold” value in the test with SARS-CoV spike protein came to 1.08 fold over isotype.

B10: antibody 339 (antibody, V domains shown)
V domain 1: QITLKESGPTLVKPTETLTLTCSFSGFSLTRTGEAAGWIRQAPGRALEWVTVIFWDDDKRYSPSLQSRLTVTKDTSKNQVVLTMTNVARFDTATYFCWAMGGPGKEYFGQGTQVAVSS
V domain 2: QSVLTQPPSVSGAPGQRVTISCTGTSSSIGPYSDVHWYQHVSGKAPRLLIFGNSNRPSGVPDRFSGSKSGTSASLVIAGLQAEDEADYYCQSYDSSLGEIYVFGTGTTVTVL
With B10, the “median fluorescence intensity, fold” value with SARS-CoV spike protein came out at 1.27 fold over isotype.

B11: antibody 368 (antibody, V domains shown)
V domain 1: B10 V domain 1 with S23A, R31K, S67N, Q79V, A88D, R89P, F90V, Y107F, Q113R
V domain 2: B10 V domain 2 with I20V, V41I, S42P, N53T, D62A, T71S
For B11, the “median fluorescence intensity, fold” value with SARS-CoV spike protein is 1.09 fold over isotype.

B12: antibody 340 (antibody, V domains shown)
VH: QVQLVQSGAEVKKPGASVKVSCKASGYTFTSYDINWVRQATGQGLEWMGWMNPNSGNTGYAQKFQGRVTMTRNTSISTAYMELSSLRSEDTAVYYCARGRYCTGGVCWGDWYFDLWGRGTLVTVSS
VL: QSVLTQPPSVSGAPGQRVTISCTGSSSNIGAGYDVHWYQQLPGTAPKFLIYGNSNRPSGVPDRFSGSKSGTSASLAITGLQAEDEADYYCQSYDSSLSGPVFGGGTKLTVL
Take B12: the “median fluorescence intensity, fold” value in the test with SARS-CoV spike protein is 1.26 fold over isotype.

B13: antibody 343 (antibody, V domains shown)
VH: QVQLVESGGDVVQPGTSLRLSCAASGFTFNNYGFHWVRQAPGKGLEWVALISSDGASTHYADSVKGRFTISRDSSVNTLYLQMNSLSLEDTAVYYCATGHCGTTCYYFDYWGQGTLVSVSS
VL: DIQVTQSPSYLSASVGDRVTITCRASQTISTFLQWYQQKVGKAPKLLIYAASTLQSGVPSRFSGSGSGTDFSLTISSLQPEDFATYYCQQSYSAPLSFGGGTKVEIK
On to B13, for which the “median fluorescence intensity, fold” value with SARS-CoV spike protein was 1.19 fold over isotype.

B14: antibody 333 (antibody, V domains shown)
VH: QVHLVESGGGVVLPGRSLRLSCSASQFIFSNYDMHWVRQSPGMGLEWVAGISSDGSDKYYIDSVRGRFTISRDNAKNTLFLQMNSLTTEDTAVYSCAKGGGKFGQYWGRGTLVTVSS
VL: AIQMTQSPSSLSASVGDRVTITCRASQVIRNDLAWFQQKPGEAPNLLVYSASNLQSGVPSRFSGSGSGTDFTLTISSLQPEDFATYYCLQDYSYPYTFGQGTKLDMK
In the case of B14, the “median fluorescence intensity, fold” value with SARS-CoV spike protein was determined as 1.21 fold over isotype.

B15: antibody 345 (antibody, V domains shown)
VH: QVQLQESGPGLVKPSQTLSLTCTVSGGSISSGDYYWSWIRQPPGKGLEWIGYIYYSGSTYYNPSLKSRVTISVDTSKNQFSLKLSSVTAADTAVYYCARVGMVDNWNFEGNWFDPWGQGTLVTVSS
VL: QSALTQPRSVSGSPGQSVTISCTGTSSDVGGYNYVSWYQQHPGKAPKLMIYDVSKRPSGVPDRFSGSKSGNTASLTISGLQAEDEADYYCCSYAGSVVFGGGTKLTVL
B15: the “median fluorescence intensity, fold” value in the test with SARS-CoV spike protein was 1.09 fold over isotype.

B16: antibody 366 (antibody, V domains shown)
VH: QVQLVESGGGVVQPGRSLRLSCAASGFTFSSYAMHWVRQAPGKGLEWVAVISYDGSNKYYADSVKGRFTISRDNSKNTLYLQMNSLRAEDTAVYYCARGLVGYNWFDPWGQGTLVTVSS
VL: DIQMTQSPSSVSASVGDRVTITCRASQGISSWLAWYQQKPGKAPKLLIYAASSLQSGVPSRFSGSGSGTDFTLTISSLQPEDFATYYCQQANSFTFGPGTKVDIK
For B16, the “median fluorescence intensity, fold” value with SARS-CoV spike protein came to 1.23 fold over isotype.

B17: antibody 337 (antibody, V domains shown)
VH: QVQLVESGGGVVQPGRSLRLSCAASGFTFSSYGMHWVRQAPGKGLEWVAIIWYDGSNKYYADSVKGRFTISRDNSKNTLYLQMNSLRAEDTAVYYCAKDTGGYCSGGSCYPESYFDYWGQGTLVTVSS
VL: SYVLTQPPSVSVAPGKTARITCGGNNIGSKSVHWYQQKPGQAPVLVIYYDSDRPSGIPERFSGSNSGNTATLTINRVEAGDEADYYCQVWDGSSDHLYVFGTGTKVTVL
For B17, the “median fluorescence intensity, fold” value with SARS-CoV spike protein came out at 439 fold over isotype.

B18: antibody 332 (antibody, V domains shown)
VH: QVTLRESGPALVKPTQTLTLTCTFSGFSLSTSGMCVSWIRQPPGKALEWLALIDWDDDKYYSTSLKTRLTISKDTSKNQVVLTMTNMDPVDTATYYCARIHDDILTGYHYVDYWGQGTLVTVSS
VL: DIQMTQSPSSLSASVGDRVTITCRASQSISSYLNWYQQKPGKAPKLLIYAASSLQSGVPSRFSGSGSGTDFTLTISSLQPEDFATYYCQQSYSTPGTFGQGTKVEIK
Turning to B18, the “median fluorescence intensity, fold” value with SARS-CoV spike protein was 0.99 fold over isotype.

B19: antibody 372 (antibody, V domains shown)
VH: QVQLVESGGGVVQPGRSLRLSCAASGFTFSSYAMHWVRQAPGKGLEWVAVISYDGSNKYYADSVKGRFTISRDNSKNTLYLQMNSLRAEDTAVYYCARDLGTSALLWFGELFLNYGMDVWGQGTTVTVSS
VL: QSALTQPRSVSGSPGQSVTISCTGTSSDVGGYNYVSWYQQHPGKAPKLMIYDVSKRPSGVPDRFSGSKSGNTASLTISGLQAEDEADYYCCSYAGSPILVFGGGTKLTVL
As for B19, the “median fluorescence intensity, fold” value in the test with SARS-CoV spike protein was determined as 1.08 fold over isotype.

B20: antibody 367 (antibody, V domains shown)
VH: QVQLVQSGAEVKKPGASVKVSCKASGYTFTGYYIHWVRQAPGQGLEWMGWINPNSGGTIYAQKFQGRVTMTRDTSISTAYMELSRLTSDDTAVYSCAREPYYDILTGYYAPRRYFDYWGQGTLVTVSS
VL: QSALTQPASVSGSPGQSITISCTGTSSDVGSYNYVSWYLQHPGKAPKLMIYDVSNRPSGVSNRFSGSKSGNTASLTISGLQAEDEADFYCSSYTSRSTYVFGTGTKVTVL
As to B20, the “median fluorescence intensity, fold” value in the test with SARS-CoV spike protein turned out to be 1.08 fold over isotype.

B21: antibody 379 (antibody, V domains shown)
VH: QVQLQESGPGLVKPSQTLSLTCTVSGGSISSGGYYWSWIRQHPGKGLEWIGYIYYSGSTYYNPSLKSRVTISVDTSKNQFSLKLSSVTAADTAVYYCARGPLDFWSGYFRLRYFDSWGQGTLVTVSS
VL: B20 VL with S31G, L39Q, S54T, F88Y, R96S, Y99C
For the molecule B21, in the test with SARS-CoV spike protein, the “median fluorescence intensity, fold” value turned out to be 5.9 fold over isotype.

B22: antibody 342 (antibody, V domains shown)
VH: EVQLVQSGAEVKKPGATVKISCKVSGYTFTDYYMHWVQQAPGKGLEWMGLVDPEDGETIYAEKFQGRVTITADTSTDTAYMELSSLRSEDTAVYYCATGGVSVWFREFPASYSGSYLGYWGQGTLVTVSS
VL: not shown
Consider B22, for which the “median fluorescence intensity, fold” value with SARS-CoV spike protein is 1.16 fold over isotype.

The values are drawn from patent publication US20210292393A1 (published 2021).
